Reference: patent US20140287434
Where a chain is given by its changes, count along the chain named. In names and notes the source's numbering stands.

Columns and labels:
[1] = test system: Tec SH3-SH2 (Tec 32)
[2] = test system: Tec SH3
[3] = molecular target: Itk SH3-SH2 (Itk 32), Q03526
[4] = molecular target: full-length wild-type Lck
[5] = molecular target: Grb2 SH2 domain
[6] = molecular target: T1, Itk SH3, Q03526
T1 chain: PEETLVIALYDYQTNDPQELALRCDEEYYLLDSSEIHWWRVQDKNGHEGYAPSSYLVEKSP

[7] = molecular target: T2, Itk SH3-Linker (Itk 3Linker), Q03526
T2 chain: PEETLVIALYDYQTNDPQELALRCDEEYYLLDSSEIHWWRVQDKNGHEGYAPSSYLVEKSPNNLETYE

[8] = molecular target: N-terminal Phosphatidylinositol 3-Kinase (p85α) SH2 domain (PI3K SH2)
[9] = molecular target: T3, PLCγ1 -Y783-SH3, P10686
T3 chain: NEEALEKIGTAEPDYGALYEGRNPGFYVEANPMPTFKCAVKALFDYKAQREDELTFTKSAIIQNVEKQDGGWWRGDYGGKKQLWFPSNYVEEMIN

[10] = molecular target: T4, PLCγ1 SH2C -Y783-, P10686
T4 chain: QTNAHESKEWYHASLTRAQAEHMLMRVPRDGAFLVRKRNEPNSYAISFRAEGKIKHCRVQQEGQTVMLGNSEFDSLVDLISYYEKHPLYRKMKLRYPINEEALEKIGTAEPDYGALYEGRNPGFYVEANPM

[11] = molecular target: T5, free Itk SH2 domain, Q03526
T5 chain: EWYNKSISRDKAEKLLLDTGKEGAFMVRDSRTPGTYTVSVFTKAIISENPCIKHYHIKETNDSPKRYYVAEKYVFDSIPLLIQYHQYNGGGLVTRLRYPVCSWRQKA

[12] = molecular target: T6, free PLCγ1 SH2C domain, P10686
T6 chain: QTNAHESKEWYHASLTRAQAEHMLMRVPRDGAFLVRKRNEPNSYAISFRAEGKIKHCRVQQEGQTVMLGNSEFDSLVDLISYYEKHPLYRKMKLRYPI

[13] = molecular target: T7, Peptide B
T7 chain: EQEDEPEGIYGVLF

[14] = molecular target: T8, biotinylated PLCγ1 SH2C-Peptide B fusion protein, P10686
T8 chain: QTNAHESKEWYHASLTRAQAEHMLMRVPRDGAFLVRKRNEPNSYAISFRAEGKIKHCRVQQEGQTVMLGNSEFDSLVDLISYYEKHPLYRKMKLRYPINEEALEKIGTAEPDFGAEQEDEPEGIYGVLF

Chain of Grb2 SH2 domain (chain, as listed by the source): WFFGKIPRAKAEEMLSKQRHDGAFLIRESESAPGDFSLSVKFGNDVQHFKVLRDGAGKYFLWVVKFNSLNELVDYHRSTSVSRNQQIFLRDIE

B1: FLAG-tagged Tec full-length enzyme (enzyme, UniProt P42680 1-631, looked up, species assumed)
chain: MNFNTILEEILIKRSQQKKKTSPLNYKERLFVLTKSMLTYYEGRAEKKYRKGFIDVSKIKCVEIVKNDDGVIPCQNKYPFQVVHDANTLYIFAPSPQSRDLWVKKLKEEIKNNNNIMIKYHPKFWTDGSYQCCRQTEKLAPGCEKYNLFESSIRKALPPAPETKKRRPPPPIPLEEEDNSEEIVVAMYDFQAAEGHDLRLERGQEYLILEKNDVHWWRARDKYGNEGYIPSNYVTGKKSNNLDQYEWYCRNMNRSKAEQLLRSEDKEGGFMVRDSSQPGLYTVSLYTKFGGEGSSGFRHYHIKETTTSPKKYYLAEKHAFGSIPEIIEYHKHNAAGLVTRLRYPVSVKGKNAPTTAGFSYEKWEINPSELTFMRELGSGLFGVVRLGKWRAQYKVAIKAIREGAMCEEDFIEEAKVMMKLTHPKLVQLYGVCTQQKPIYIVTEFMERGCLLNFLRQRQGHFSRDVLLSMCQDVCEGMEYLERNSFIHRDLAARNCLVSEAGVVKVSDFGMARYVLDDQYTSSSGAKFPVKWCPPEVFNYSRFSSKSDVWSFGVLMWEVFTEGRMPFEKYTNYEVVTMVTRGHRLYQPKLASNYVYEVMLRCWQEKPEGRPSFEDLLRTIDELVECEETFGR
modifications: full-length FLAG tag
[1]
  phosphorylation on Y187 in an in vitro kinase assay: only substrates that contain both the site of phosphorylation (Y180 for Itk, Y187 for Tec, Y223 for Btk, and Y783 for PLCγ1) and the adjacent SH2 domain are phosphorylated by the Tec kinases
[2]
  phosphorylation on Y187 in an in vitro kinase assay: are not phosphorylated by the Tec and Btk kinases

B2: FLAG-tagged Itk kinase domain (Itk KD) (protein)
chain: VIQPSELTFVQEIGSGQFGLVHLGYWLNKDKVAIKTIQEGAMSEEDFIEEAEVMMKLSHPKLVQLYGVCLEQAPICLVFEFMEHGCLSDYLRSQRGLFAAETLLGMCLDVCEGMAYLEKACVIHRDLAARNCLVGENQVIKVSDFGMTRFVLDDQYTSSTGTKFPVKWASPEVFSFSRYSSKSDVWSFGVLMWEVFSEGKIPYENRSNSEVVEDISTGFRLYKPRLASCHVYQIMNHCWKEKPEDRPPFSQLLSQLAEIAEAGL
[3]
  phosphorylation of Itk 32 by the isolated Itk kinase domain (anti-pY180 blot): The Itk catalytic fragment leads to substrate phosphorylation

B3: Catalytically inactive (K390R) Itk kinase domain (KD) (protein)
chain: B2 chain with K29R
[4]
  phosphorylation of Itk Y511 by Lck (Btk phosphoY551 antibody blot): phosphorylation of the Itk kinase domain alone (on Y511) by Lck is very inefficient

B4: Catalytically inactive (K390R) Itk SH2-kinase domain (2KD) (protein)
chain: EWYNKSISRDKAEKLLLDTGKEGAFMVRDSRTPGTYTVSVFTKAIISENPCIKHYHIKETNDSPKRYYVAEKYVFDSIPLLIQYHQYNGGGLVTRLRYPVCSWRQKAPVTAGLRYGKWVIQPSELTFVQEIGSGQFGLVHLGYWLNRDKVAIKTIQEGAMSEEDFIEEAEVMMKLSHPKLVQLYGVCLEQAPICLVFEFMEHGCLSDYLRSQRGLFAAETLLGMCLDVCEGMAYLEKACVIHRDLAARNCLVGENQVIKVSDFGMTRFVLDDQYTSSTGTKFPVKWASPEVFSFSRYSSKSDVWSFGVLMWEVFSEGKIPYENRSNSEVVEDISTGFRLYKPRLASCHVYQIMNHCWKEKPEDRPPFSQLLSQLAEIAEAGL
[4]
  phosphorylation of Itk Y511 by Lck (Btk phosphoY551 antibody blot): Lck phosphorylation of the SH2-kinase fragment of Itk proceeds readily

B5: FLAG-tagged Itk full-length (FLItk) enzyme (protein)
chain: MNNFILLEEQLIKKSQQKRRTSPSNFKVRFFVLTKASLAYFEDRHGKKRTLKGSIELSRIKCVEIVKSDISIPCHYKYPFQTLVYLQVVHDNYLLYVFAPDCESRQRWVLTLKEETRNNNSLVSKYHPNFWMDGRWRCCSQLEKPAVGCAPYDPSKNASKKPLPPTPEDNRRSFQEPEETLVIALYDYQTNDPQELALRCDEEYYLLDSSEIHWWRVQDKNGHEGYAPSSYLVEKSPNNLETYEWYNKSISRDKAEKLLLDTGKEGAFMVRDSRTPGTYTVSVFTKAIISENPCIKHYHIKETNDSPKRYYVAEKYVFDSIPLLIQYHQYNGGGLVTRLRYPVCSWRQKAPVTAGLRYGKWVIQPSELTFVQEIGSGQFGLVHLGYWLNKDKVAIKTIQEGAMSEEDFIEEAEVMMKLSHPKLVQLYGVCLEQAPICLVFEFMEHGCLSDYLRSQRGLFAAETLLGMCLDVCEGMAYLEKACVIHRDLAARNCLVGENQVIKVSDFGMTRFVLDDQYTSSTGTKFPVKWASPEVFSFSRYSSKSDVWSFGVLMWEVFSEGKIPYENRSNSEVVEDISTGFRLYKPRLASCHVYQIMNHCWKEKPEDRPPFSQLLSQLAEIAEAGL
[5]
  phosphorylation of Itk 32 and PLCγ1 SH2C -Y783- by full-length Itk: two different control SH2 domains (derived from PI3K and Grb2) do not inhibit the phosphorylation of the substrates even at large molar excess
[6]
  phosphorylation on Y180 in an in vitro kinase assay: the isolated SH3 domain does not serve as a substrate for full length Itk
[7]
  phosphorylation on Y180 in an in vitro kinase assay: Only Itk fragments that contain the SH2 domain and Y180 are phosphorylated by Itk
[3]
  phosphorylation on Y180 in an in vitro kinase assay: only substrates that contain both the site of phosphorylation (Y180 for Itk, Y187 for Tec, Y223 for Btk, and Y783 for PLCγ1) and the adjacent SH2 domain are phosphorylated by the Tec kinases
[8]
  phosphorylation of Itk 32 and PLCγ1 SH2C -Y783- by full-length Itk: two different control SH2 domains (derived from PI3K and Grb2) do not inhibit the phosphorylation of the substrates even at large molar excess
[9]
  phosphorylation on Y783 in an in vitro kinase assay: is not phosphorylated by full length Itk
[10]
  phosphorylation on Y783 in an in vitro kinase assay: only substrates that contain both the site of phosphorylation (Y180 for Itk, Y187 for Tec, Y223 for Btk, and Y783 for PLCγ1) and the adjacent SH2 domain are phosphorylated by the Tec kinases
[11]
  autophosphorylation of Tyr 180 within full length Itk: autophosphorylation at this site is greatly diminished upon addition of free Itk SH2 domain
  initial velocity of peptide B phosphorylation by full length Itk: do not change significantly with increasing concentrations of Itk SH2 domain
  phosphorylation of Itk 32 substrate on Y180 by full-length Itk (anti-pY180 blot): free Itk SH2 domain competes with the Itk 32 substrate
[12]
  phosphorylation of PLCγ1 SH2C -Y783- substrate by full-length Itk (anti-pY783 blot): The PLCγ1 SH2 domain competes with the PLCγ1 substrate in a similar manner

B6: FLAG-tagged Itk LKD enzyme (protein)
chain: CSWRQKAPVTAGLRYGKWVIQPSELTFVQEIGSGQFGLVHLGYWLNKDKVAIKTIQEGAMSEEDFIEEAEVMMKLSHPKLVQLYGVCLEQAPICLVFEFMEHGCLSDYLRSQRGLFAAETLLGMCLDVCEGMAYLEKACVIHRDLAARNCLVGENQVIKVSDFGMTRFVLDDQYTSSTGTKFPVKWASPEVFSFSRYSSKSDVWSFGVLMWEVFSEGKIPYENRSNSEVVEDISTGFRLYKPRLASCHVYQIMNHCWKEKPEDRPPFSQLLSQLAEIAEAGL
[13]
  Km: 87 µM for Peptide B alone
[14]
  Km: 5.64 µM for the SH2-Peptide B fusion
  fold increase in substrate affinity against Peptide B alone: exhibiting a 15-fold increase in substrate affinity
  kcat/Km against Peptide B alone: Peptide B is a better substrate by 7-fold (kat/Km) when tethered to the SH2 domain of PLCγ1
